{
  "source": "patent US20220354962A1",
  "about": "(University of Pennsylvania, published 2022)",
  "molecular_target": "BSA (UniProt P02769 25-607)",
  "assay": "photocrosslinking with TAMRA-tagged adapter, reducing SDS-PAGE, fluorescence image",
  "note": "Where no end group is shown, it is not given here.",
  "data": [
    {"binder": "LASIC Protein G adapter with C-terminal STEPL peptide (TAMRA; TAMRA-DBCO; FAM-Azide; Biotin), BPA position not stated (designed binder, also: BPA at unstated position, C-terminal Gly-Gly-Gly peptide carrying label (TAMRA, TAMRA-DBCO, FAM-azide or biotin), also called TAMRA dye-tagged LASIC adapter; TAMRA labeled Protein G adapter protein) MTFKLIINGKTLKGEITIEAVDAAEAEKIFKQYANDYGIDGEWTYDDATKTFTVTE", "values": [
      {"measurement": "binding result", "value": "no binding"}
    ]}
  ]
}
